Source: publication PMC3094755, “The DNA-Binding Domain of Human PARP-1 Interacts with DNA Single-Strand Breaks as a Monomer through Its Second Zinc Finger”

Experiments:
Conditions in all cases: protein: recombinant; label: fluorescein-dT at T8; single-chain dumbbell, 18 bp with central nick, two tetraloops
[1] = target: T1, PARP-1 F1+F2 (24-kDa DBD) (Homo sapiens, UniProt P09874 1-214); experiment: fluorescence anisotropy; 200; 50 mM Tris-HCl pH 7.0, 150 uM ZnSO4, 4 mM DTT, 25 C; NaCl 0-200 mM (T2, as in cof; 10 nM DNA) or 25 mM (T3 mutants; 25 nM DNA)
T1 sequence (P09874 1-214): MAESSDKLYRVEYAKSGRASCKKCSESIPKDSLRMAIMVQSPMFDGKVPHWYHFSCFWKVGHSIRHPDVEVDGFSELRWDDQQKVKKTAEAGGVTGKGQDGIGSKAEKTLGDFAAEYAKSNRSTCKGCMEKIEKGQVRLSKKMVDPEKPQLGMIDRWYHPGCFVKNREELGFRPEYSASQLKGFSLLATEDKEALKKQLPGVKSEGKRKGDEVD

[2] = target: T1, PARP-1 F1+F2 (24-kDa DBD); experiment: fluorescence anisotropy; 0; 50 mM Tris-HCl pH 7.0, 150 uM ZnSO4, 4 mM DTT, 25 C; NaCl 0-200 mM (T2, as in cof; 10 nM DNA) or 25 mM (T3 mutants; 25 nM DNA)
[3] = target: PARP-1 F2 S120G (Homo sapiens, UniProt P09874 103-214, S120G); experiment: fluorescence anisotropy; 25 mM NaCl, one-site fit; 50 mM Tris-HCl pH 7.0, 150 uM ZnSO4, 4 mM DTT, 25 C; NaCl 0-200 mM (T2, as in cof; 10 nM DNA) or 25 mM (T3 mutants; 25 nM DNA)
Chain of PARP-1 F2 S120G (P09874 103-214 S120G): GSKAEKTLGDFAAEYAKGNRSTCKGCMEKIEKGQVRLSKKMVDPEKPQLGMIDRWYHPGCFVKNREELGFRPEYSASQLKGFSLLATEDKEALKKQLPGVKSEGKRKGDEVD

[4] = target: PARP-1 F2 K134I (Homo sapiens, UniProt P09874 103-214, K134I); experiment: as above
Chain of PARP-1 F2 K134I (P09874 103-214 K134I): as the sequence (P09874 103-214 S120G) above, with G18S, K32I counted along it

[5] = target: PARP-1 F2 (Homo sapiens, UniProt P09874 103-214); experiment: as above
Chain of PARP-1 F2 (P09874 103-214): as the sequence (P09874 103-214 S120G) above, with G18S counted along it

[6] = target: PARP-1 F2 K131I (Homo sapiens, UniProt P09874 103-214, K131I); experiment: as above
Chain of PARP-1 F2 K131I (P09874 103-214 K131I): as the sequence (P09874 103-214 S120G) above, with G18S, K29I counted along it

[7] = target: PARP-1 F2 K119I (Homo sapiens, UniProt P09874 103-214, K119I); experiment: as above
Chain of PARP-1 F2 K119I (P09874 103-214 K119I): as the sequence (P09874 103-214 S120G) above, with K17I, G18S counted along it

[8] = target: PARP-1 F2 K197I (Homo sapiens, UniProt P09874 103-214, K197I); experiment: as above
Chain of PARP-1 F2 K197I (P09874 103-214 K197I): as the sequence (P09874 103-214 S120G) above, with G18S, K95I counted along it

[9] = target: PARP-1 F2 K142I (Homo sapiens, UniProt P09874 103-214, K142I); experiment: as above
Chain of PARP-1 F2 K142I (P09874 103-214 K142I): as the sequence (P09874 103-214 S120G) above, with G18S, K40I counted along it

[10] = target: PARP-1 F2 K141I/K142I (Homo sapiens, UniProt P09874 103-214, K141I;K142I); experiment: as above
Chain of PARP-1 F2 K141I/K142I (P09874 103-214 K141I/K142I): as the sequence (P09874 103-214 S120G) above, with G18S, K39I, K40I counted along it

[11] = target: PARP-1 F2 R138I (Homo sapiens, UniProt P09874 103-214, R138I); experiment: as above
Chain of PARP-1 F2 R138I (P09874 103-214 R138I): as the sequence (P09874 103-214 S120G) above, with G18S, R36I counted along it

[12] = target: PARP-1 F2 K131I/G135D (Homo sapiens, UniProt P09874 103-214, K131I;G135D); experiment: as above
Chain of PARP-1 F2 K131I/G135D (P09874 103-214 K131I/G135D): as the sequence (P09874 103-214 S120G) above, with G18S, K29I, G33D counted along it

[13] = target: PARP-1 F2 W157I (Homo sapiens, UniProt P09874 103-214, W157I); experiment: as above
Chain of PARP-1 F2 W157I (P09874 103-214 W157I): as the sequence (P09874 103-214 S120G) above, with G18S, W55I counted along it

[14] = target: PARP-1 F2 K141I (Homo sapiens, UniProt P09874 103-214, K141I); experiment: as above
Chain of PARP-1 F2 K141I (P09874 103-214 K141I): as the sequence (P09874 103-214 S120G) above, with G18S, K39I counted along it

[15] = target: PARP-1 F2 G135D (Homo sapiens, UniProt P09874 103-214, G135D); experiment: as above
Chain of PARP-1 F2 G135D (P09874 103-214 G135D): as the sequence (P09874 103-214 S120G) above, with G18S, G33D counted along it

B1: 44-nt nicked dumbbell, 5'-phosphate, fluorescein-dT (structured_DNA)
DNA: CGGTCGATCGTAAGATCGACCGGCGCTGGAGCTTGCTCCAGCGC
modifications: 5'-phosphate
Work on B1 yielded a Kd [1] of 0.0454 µM, a Kd [2] of 0.00575 µM and a Kd [3] of 2.43 µM. It also gave a Kd [4] of 3.33 µM, a Kd [5] of 0.343 µM and a Kd [6] of 1.57 µM. For the same binder, the Kd [7] was 4.55 µM, the Kd [8] was 0.664 µM and the Kd [9] was 1.18 µM. For the same binder, the Kd [10] was 3.93 µM, the Kd [11] was 19.8 µM and the Kd [12] was 3.75 µM. For the same binder, the Kd [13] was 4.93 µM, the Kd [14] was 1.49 µM and the Kd [15] was 1.71 µM.
